Assays:
[1] = target: T1, CsMES1 (Citrus sinensis, UniProt A0A067GV78); test: ITC; also esterase inhibition (IC50 […] at […] MeSA); type: binding
T1 construct: gene CISIN_1g024065mg; recombinant CsMES1 (KDO79352) from pET28a in E. coli
T1 sequence (A0A067GV78 1-267): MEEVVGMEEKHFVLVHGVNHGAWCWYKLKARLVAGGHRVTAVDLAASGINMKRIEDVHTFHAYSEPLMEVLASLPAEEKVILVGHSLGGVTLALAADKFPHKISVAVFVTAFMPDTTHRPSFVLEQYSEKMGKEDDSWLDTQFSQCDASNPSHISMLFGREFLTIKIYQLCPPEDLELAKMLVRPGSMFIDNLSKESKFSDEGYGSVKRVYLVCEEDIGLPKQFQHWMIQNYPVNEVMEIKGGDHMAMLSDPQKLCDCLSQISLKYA

[2] = target: T2, CsMES1 V18S (Citrus sinensis, UniProt A0A067GV78, V18S); test: biochemical; type: binding
T2 construct: gene CISIN_1g024065mg; optimized CsMES1 V18S synthetic gene in pET28a, recombinant from E. coli
T2 sequence (A0A067GV78 1-267 V18S): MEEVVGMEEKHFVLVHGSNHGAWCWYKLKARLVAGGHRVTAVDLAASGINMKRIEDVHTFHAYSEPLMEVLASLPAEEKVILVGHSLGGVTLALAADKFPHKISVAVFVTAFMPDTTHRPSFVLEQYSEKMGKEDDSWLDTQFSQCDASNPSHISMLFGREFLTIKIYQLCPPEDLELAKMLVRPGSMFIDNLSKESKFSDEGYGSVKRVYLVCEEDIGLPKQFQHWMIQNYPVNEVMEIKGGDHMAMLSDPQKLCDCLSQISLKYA

[3] = target: T3, CsMES1 V18A (Citrus sinensis, UniProt A0A067GV78, V18A); test: biochemical; type: binding
T3 construct: gene CISIN_1g024065mg; recombinant CsMES1 (KDO79352) from pET28a in E. coli
T3 sequence (A0A067GV78 1-267 V18A): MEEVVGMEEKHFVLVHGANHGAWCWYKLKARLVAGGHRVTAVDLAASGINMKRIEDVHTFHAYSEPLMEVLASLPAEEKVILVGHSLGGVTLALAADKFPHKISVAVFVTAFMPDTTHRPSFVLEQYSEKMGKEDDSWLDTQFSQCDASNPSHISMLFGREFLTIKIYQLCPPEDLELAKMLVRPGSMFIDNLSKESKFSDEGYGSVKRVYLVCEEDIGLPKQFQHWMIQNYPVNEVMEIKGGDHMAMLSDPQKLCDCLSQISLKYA

[4] = target: Citrus sinensis salicylate methylesterase CsMES1 (recombinant, wild type) (Citrus sinensis); test: SEC; analytical gel filtration on Superdex 75 10/300 in SEC buffer (137 mM NaCl, 10 mM Na2HPO4, 2.7 mM KCl, 2 mM KH2PO4, pH 7.5); mass estimated from standards (bovine serum albumin, ovalbumin, lysozyme)
[5] = substrate: COC(=O)c1ccccc1O; test: MeSA esterase kinetics, SA fluorescence (Km); type: biochemical, Citrus sinensis; settings: active site

O=C(c1ccccc1)C(F)(F)F [TriFA, 2,2,2-Trifluoroacetophenone] gave a Kd [1] of 7100 nM, a Kd [2] of ~300 nM and a Kd [3] of ~300 nM.

“Citrus sinensis salicylate methylesterase CsMES1 (recombinant, wild type) (enzyme)” was tested, and the stoichiometry N [4] was 2.

B1: CsMES1 (Citrus sinensis) (protein)
chain: MEEVVGMEEKHFVLVHGVNHGAWCWYKLKARLVAGGHRVTAVDLAASGINMKRIEDVHTFHAYSEPLMEVLASLPAEEKVILVGHSLGGVTLALAADKFPHKISVAVFVTAFMPDTTHRPSFVLEQYSEKMGKEDDSWLDTQFSQCDASNPSHISMLFGREFLTIKIYQLCPPEDLELAKMLVRPGSMFIDNLSKESKFSDEGYGSVKRVYLVCEEDIGLPKQFQHWMIQNYPVNEVMEIKGGDHMAMLSDPQKLCDCLSQISLKYA
notes: recombinant CsMES1 (KDO79352) from pET28a in E. coli
B1 was tested, and the Km [5] was 48.9 ± 15.63 µM and the kcat [5] was 0.38 ± 0.06 s⁻¹.

B2: CsMES1 V18A (Citrus sinensis; V18A) (protein)
chain: MEEVVGMEEKHFVLVHGANHGAWCWYKLKARLVAGGHRVTAVDLAASGINMKRIEDVHTFHAYSEPLMEVLASLPAEEKVILVGHSLGGVTLALAADKFPHKISVAVFVTAFMPDTTHRPSFVLEQYSEKMGKEDDSWLDTQFSQCDASNPSHISMLFGREFLTIKIYQLCPPEDLELAKMLVRPGSMFIDNLSKESKFSDEGYGSVKRVYLVCEEDIGLPKQFQHWMIQNYPVNEVMEIKGGDHMAMLSDPQKLCDCLSQISLKYA
notes: as for B1
Molecule B2 has a Km [5] of 11.7 ± 0.97 µM.

B3: CsMES1 V18S (Citrus sinensis; V18S) (protein)
chain: MEEVVGMEEKHFVLVHGSNHGAWCWYKLKARLVAGGHRVTAVDLAASGINMKRIEDVHTFHAYSEPLMEVLASLPAEEKVILVGHSLGGVTLALAADKFPHKISVAVFVTAFMPDTTHRPSFVLEQYSEKMGKEDDSWLDTQFSQCDASNPSHISMLFGREFLTIKIYQLCPPEDLELAKMLVRPGSMFIDNLSKESKFSDEGYGSVKRVYLVCEEDIGLPKQFQHWMIQNYPVNEVMEIKGGDHMAMLSDPQKLCDCLSQISLKYA
notes: optimized CsMES1 V18S synthetic gene in pET28a, recombinant from E. coli
Work on B3 yielded a Km [5] of 16.1 ± 0.23 µM.
